Laboratory results from the DeepSol protein solubility set.

test: soluble on expression in E. coli; label from the status in PepcDB or PDB records

Row | Sequence | soluble on expression in E. coli
1 | MGSDKIHHHHHHMNKQVNFDELEVGYDVPALPGMDEADIQTPCLVLDLDALERNIKKMGDYAREHGMRHRVHGKMHKSVDVAKLQEELGGACGVCCQKVSEAEVFARGGIKDVMVSNQVTDPQKIDRLARMPKFGARVLCCVDDPANVADLSAAAVKHGTQIEALVEIDCGAGRCGVTTTQEVVNIAKMIDAAEGLKFAGIQAYQGAMQHLDSYDERASKTQVAIDMVEDAIAGLKANGLECDIVGGGGTGSYYFESNSGAFNELQCGSYAFMDADYGRILDKDGKRIDDGEWENALFILTSVMSHAKADKAIVDAGLKAQSVDSGLATIYGRDDVEYVKCSDEHGVVMDPDGVLNVNDKLRLVPGHCDPTCNVHDWYVGVRGGKVETLWPVSARGKAY | not soluble
2 | MAASKKAVLGPLVGAVDQGTSSTRFLVFNSKTAELLSHHQVEIKQEFPREGWVEQDPKEILHSVYECIEKTCEKLGQLKIDISNIKAIGVSNQRETTVVWDKITGEPLYNAVVWLDLRTQSTVESLSKRITGNNNFVKSKTGLPLSTYFSAVKLRWLLDNVRKVQKAVEEKRALFGTIDSWLIWSLTGGVNGGVHCTDVTNASRTMLFNIHSLEWDKQLCEFFGIPMEILPNVRSSSEIYGLMKISHSVKAGALEGVPISGCLGDQSAALVGQMCFQIGQAKNTYGTGCFLLCNTGHKCVFSDHGLLTTVAYKLGRDKPVYYALEGSVAIAGAVIRWLRDNLGIIKTSEEIEKLAKEVGTSYGCYFVPAFSGLYAPYWEPSARGIICGLTQFTNKCHIAFAALEAVCFQTREILDAMNRDCGIPLSHLQVDGGMTSNKILMQLQADILYIPVVKPSMPETTALGAAMAAGAAEGVGVWSLEPEDLSAVTMERFEPQINAEESEIRYSTWKKAVMKSMGWVTTQSPESGIP | not soluble
3 | MIIEKKIKNYTVFVKKDGEKYIEIFKDFLSYNHQVIKVFRNIEDTKVVLINTDYGKYILKVFSPKVKNTERFFKSLVKGDYYEKLFHQTDRVRREGFAALNDFYLLAEIKTLRYVKTYVMIIEYIEGIELVDMPEISDEVRGKIKQSIYSLHQHGMVSGDPHKGNFILQGNEIRIIDLSGKRPSRQRKAKDRIDLERHYGIKNNVRDIGFYLLIYKKKLRNFLRRIKGKEKRLEHHHHHH | not soluble
4 | MEVDGASDDEQEQIIRKLVKKPEFLSDEEDDSVEDQVVWECDVVVCNSTPNTEMFSVSYPSSKRDAWDAKRFPIARYKKNVRLLEMRFMTDTQLGSYDKKKAELMYMDGDVPKKGHGIDALRANDEIYEGRAFIHDHPIVNAIGFFKNGEFFIHPLTGAFEMHRSIQGLNKKKKSDGKSGKSDEDSSGEEEDVKPSSAAVRVKFSRPETERQKKRREASALHREKKIASDMWIPMKVHLKDGDPVAEKIDGISQNGLLLDDPEASRMSIRALVNRAIICGVKEELVIESGKEHMLSKQRIDDLPDPNLQLKAHMVKSHVMKTSEMRRLIDPSAMSTDKMIAKLKECASLVQGVWVLDSNLMFKNLAPAHSNTAGKTDLYRAELWRNARDLALCLIDGGHRVTRLTLMTCFKLSERDSDEILSTFGVKCEATRSWRLRVERDAQFLEDPAMKKHVVEQKAKWVQKFNELEKSLQESPAKSPKKK | not soluble
5 | MGHHHHHHSHMHGSPVEVKIQSRSSPPTMPPLPPINPGGPRPVSFTPTALSNGINHSPPTLNGAPSPPQRFSNGPASSTSSALTNQQLPATCGARQLSKLKRFLTTLQQFGNDISPEIGEKVRTLVLALVNSTVTIEEFHCKLQEATNFPLRPFVIPFLKANLPLLQRELLHCARAAKQTPSQYLAQHEHLLLNTSIASPADSSELLMEVHGNGKRPSPESCIIHLKSMGVASRHEYFSGTLQMPAHPVRNSTLENLWVDCSRSLRSTVLPFP | not soluble
6 | MFRTQSRYLVRSILANHCVLPSTRMAVSPILNQSIKFYSSKDNATDKSQEKEQPKSILNDDMLARAGFEDVDPKEETSNSEEQATKQTGRKRKRAQTSKDLQRERYANMFYLSALIFGVAGVGYMSRDWDSEKEQEEMDGKNVENGYTPKLMYERLSKRLGSLFTFFSEPAFENLLPPPPPEQYRRPLTLVVTLDDFLIHSNWDTQHGWRTGKRPGLDYFLGYLSQYYEIVVFSSNSQIYSDKTVNKLDPYHAYISYALFREACRYKDGKLIKDLSLLNRDLGKTVMIDVDEDSAALQPENSIIVKKWEGQPDEYLISLIPFLEYLATQPVKDVRPILNSYKDKSNIVAEFAERENKLREQWRKDHGGNNGKPNAGNFIAKLLGIPVPEPKMPLDIIREHGQLQYEHFQKYLQENAHKFLEEEQKLKDEFGKVTLNKLITEGAPNAEEIAKVQQQRALEEAQKQQEGHK | not soluble
7 | GMGISNIKQLYSKWKSLQPLKPEDLKRWNDKFKLEFNYNSNHLEGNTLTYGQTKLLLMFGETSGNASLKDYEEMKAHNVGLEMIKQEAQDKERPLTESFIRELNRTILVQDYWKNAKTPDGQDIRMQIKVGEYKSRPNSVLTATGEVFSYASPEETPAFMTSLVDWYNLEADKGILTPVELAALLHYRYIRIHPFEDGNGRIARLLVNFVLHRYGYPMIVIHSEDKSNYLNILHQCDVEAGLTPSDGANATLNDILPFVNYLSSCLIRSLTLAIKAAKGESIEEEGDFDKK | soluble
8 | MKLASPKPFTFEGGDRAVLLLHGFTGNSADVRMLGRFLEKKGYTCHAPIYKGHGVPPEELVHTGPEDWWQDVTEAYQLLKDKGFEKIAVVGLSLGGVFSLKLGYTVPVLGVVPMCAPMYIKSEETMYQGILAYAREYKKREQKSPEQIEQEMLEFQKTPMNTLKALQQLIADVRNNVDMIYVPTFVVQARHDEMINTDSANIIYNGVESTLKDIKWYEDSTHVITLDKQRDELHEDVYNFLEQLDW | not soluble
9 | MGSVSKANVPKIDVSPLFGDDQAAKMRVAQQIDAASRDTGFFYAVNHGINVQRLSQKTKEFHMSITPEEKWDLAIRAYNKEHQDQVRAGYYLSIPGKKAVESFCYLNPNFTPDHPRIQAKTPTHEVNVWPDETKHPGFQDFAEQYYWDVFGLSSALLKGYALALGKEENFFARHFKPDDTLASVVLIRYPYLDPYPEAAIKTAADGTKLSFEWHEDVSLITVLYQSNVQNLQVETAAGYQDIEADDTGYLINCGSYMAHLTNNYYKAPIHRVKWVNAERQSLPFFVNLGYDSVIDPFDPREPNGKSDREPLSYGDYLQNGLVSLINKNGQT | soluble
10 | MGSDKIHHHHHHMDKYLSANSLEGVIDNEFSMPAPRWLNTYPAGPYRFINREFFIIAYETDPDLLQAILPPDMELLEPVVKFEFIRMPDSTGFGDYTESGQVVPVRYKGEEGGFTISMFLDCHAPIAGGREIWGFPKKLAKPKLFVEEDTLIGILKYGSIDIAIATMGYKHRPLDAEKVLESVKKPVFLLKNIPNVDGTPLVNQLTKTYLTDITVKGAWTGPGSLELHPHALAPISNLYIKKIVSVSHFITDLTLPYGKVVADYLA | not soluble
11 | MGSDKIHHHHHHMNMKVLLVNPVGEWGGAEKIFFLVSQIFQKTGFELYVLLGSRGILYEKLRNLNFNISIMNFPDLSENSIVIAGRRFQLPHHLLKNLRKIKILSKKFWDYLRILKPDIIYLNNLRSLVLYYETVRTYGKPCEAVVIWHEHGYQRSIIRQLILDKIYLKFVDAVICVSKHLANKHLKDVQQKLYVVHNGIPDELNAIEKENVRYEYNNNKVLIIHPAFITYWKGQHLALKAVDLLVKRGVRNFEIWFFGEPRSKQDYKYFKKLKQFVRSKNLEKQVFFKGFSANIIDEMLKADIVISTSVEDDPFPTILLEASMIGKPVVTTDAGGSGEIVKNGETGFVVKKDKRELASALCELIQNKELRDVFSKNARDRFLKEFSILAFEKRFLETLESILRR | not soluble
12 | MGSDKIHHHHHHMAPRIKTRDRIAQASLELFNAQGERSVTTNHIATHLGISPGNLYYHYPNKQAIIAELFAEYESHVESFLRLPEGRGLTVDDKTFYLEALLAAMWRYRFLHRDLEHLLESDPELAARYRAFAQRCLVNAKAIYRGFTEAGILRMNETQLEALTLNAWIILTSWVRFLCTTLDLDGDLSEAQLRRGIYQVLALESGHIEAQAQDAVDGISERLYVPL | not soluble
13 | VTDDLEPTAPAAAAPEPEVKGIDLARRALEEARAAAKASGKSVGQGRRSGTGVRALRARRRRGWSGPGPDDRDPQPFGALTNAIAKQRGWSPKVSEGTVLGRWVQVVGEDIAAHAEPTGLRDGILSVSAESTAWATQLRMMQSQILAKIAAAVGDGVVKSLRITGPTAPSWRKGERHIRGRGPRDTYG | not soluble
14 | MSPQVSIVIPNHDYGRYLDACLDSLAAQTLPVQRMEVIVVDDASGDDSLERAARWQACHPWKAFTVVPLSRVGRPGPVRNAGLRRAQAALMLCLDPDDTLAPEALVRMVEALDNAPHAHVASSDYFEHRGEHIRRVNIPDDDSNVLPTQNPCHSASLFRREVWEATGGYTAATAYEDWDFWVRAASCGMRRVRVPYPLVHYRLRDDGFWVGASADDAKAKAAIVRRTPAFFAPEVRGWAVAILRGETWMPAFPRGVIPTAEALRAFRDDCMARLGPQADSLFTALPGWPRKTGESSRSGETGQSGLEHHHHHH | not soluble
15 | MCMDRIEKLIKKVSKPARLSVERCRLYTESMKQTEGEPMIIRQAKALKHVLENIPIQILDSELIVGTMLPNPPGAIIFPEGVGLRIINELDSLPNRETNRLMVDEEDAKVLREEIAPYWQRKTIEAFAFPLMPDIMQILYTGSVFVLTEIAGISHVAVNYPYLLRRGFRWFLEESERRIRALEESGVYEGEKYSFYQAAKIVSEAVINYGLRYSKLAEELAESEDGERREELLKIAEICRKVPAEKPETFWEAVQFVWLVQSALHQENYEQAISMGRIDQYLYPFFKKDIGEGRINRELAFDILANLWIKTNEIVPAFDSLLEQYFSGQATNQAVTIGGCDIYGNDATNELTYLMLEVTDRLRLRQPNVHVRINKGSPESFLKRLAEAISSGCNNLALFFDDAAVKALKNAEVDDRDALNYTTDGCVEIAPFGNSFTSSDAALINVAKALEYALNEGVDLQFGYEFGAKTEKPKFLEDLLEKLREQVSHIVKLVVRGSNVLSYANAEVKPTPLLSLCVEDCFEKGVDVSRGGARYNFTGIQAVGIADVGDSLVAIEGALNAGYSMDDIVEACRKNFVGYEKLHKLLLQSPKYGNDDDAADKYTKMVLEWYCEEVNRHRNFRGGKFAAGCYPMTTNVGFGFFTSALPSGRKSGEPLNPGVSPSTGMDREGVTAVINSASKLSYENLPNGASLTINLSSDVLGEKGDAVIEALIKSSMELGVMHVQFNILKEDLLRKAQQEPEKYRWLLVRVAGWSAYFVELSRPVQEEVIRRISCRI | soluble
16 | MSLTRLLIRDFRNIETADLALSPGFNFLVGANGSGKTSVLEAIYTLGHGRAFRSLQIGRVIRHEQEAFVLHGRLQGEERETAIGLTKDKQGDSKVRIDGTDGHKVAELAHLMPMQLITPEGFTLLNGGPKYRRAFLDWGCFHNEPGFFTAWSNLKRLLKQRNAALRQVTRYEQLRPWDKELIPLAEQISTWRAEYSAGIAADMADTCKQFLPEFSLTFSFQRGWEKETEYAEVLERNFERDRQLTYTAHGPHKADLRIRADGAPVEDTLSRGQLKLLMCALRLAQGEFLTRESGRRCLYLIDDFASELDDERRGLLASRLKATQSQVFVSAISAEHVIDMSDENSKMFTVEKGKITD | soluble
17 | MGSDKIHHHHHHMRSIADQYNVSTNSVSRRILALGKQTMPAYDGLPQTLCIDEFRSTSNQMSFITIDGQKHDIITILPGRQTNEIKQFFLNHYSLKNREQVTQVVMDLNAQYQTFIHYLFPNAKLIVDNFHLVQMALRALNQTRVQLMKKYHPNTPEYWVLKSYWRLYLMNYEALEKSQPQWFSHLRNRLTQEQLIWSGLNLSHEFENTYFTAHKLVEAFRSRDYAAFTATLDEVENVSPQLFTTIKTFIKNKKLIQNMTSSTLSNGPIEGVNRKIKQIKRTAYGYRNWKNFVFRIQIEFKIRLKKRNPVRK | not soluble
